How the values were obtained:
[1] = system: human UM-UC-1 bladder cancer cell line; experiment: Conditional survival study (tumor growth delay) in UM-UC-1 bladder cancer xenograft mice; format: in vivo; conditions: administered as single agent
Protocol: Efficacy was assessed using tumor growth delay in a conditional survival study.

[2] = system: other FGFRs; conditions: cited from earlier work
[3] = system: cancers expressing both wild-type and genetically activated forms of FGFR3; conditions: Du 2011; cited from earlier work
[4] = Phase 1b/2 study of B-701 and docetaxel in advanced UCC, Cohort 1: safety; conditions: Cohort 1, n=19, B-701 given with docetaxel
Protocol: Docetaxel was administered intravenously over approximately 60 minutes at a dosage of 75 mg/m^2. […] Administration was carried out every 3 weeks (q3w). […] The primary objective was to evaluate progression-free survival (PFS) and safety. Secondary objectives included evaluation of overall response rate (ORR), duration of response (DOR), disease control rate (DCR), and overall survival (OS). Each of these objectives was evaluated for correlations with FGFR3 expression and/or FGFR3 mutations/fusions.

[5] = resolved after docetaxel was discontinued

## Nc1ccn([C@@H]2O[C@H](CO)[C@@H](O)C2(F)F)c(=O)n1 [gemcitabine]
[1]
  survival of tumor bearing UM-UC-1 xenograft mice: significantly extended survival

## CC(=O)O[C@H]1C(=O)[C@@]2(C)[C@H]([C@H](OC(=O)c3ccccc3)[C@]3(O)C[C@H](OC(=O)[C@H](O)[C@@H](NC(=O)c4ccccc4)c4ccccc4)C(C)=C1C3(C)C)[C@]1(OC(C)=O)CO[C@@H]1C[C@@H]2O [paclitaxel]
[1]
  survival of tumor bearing UM-UC-1 xenograft mice: significantly extended survival

## B-701: human FGFR3 antagonistic monoclonal antibody MFGR1877S (CAS No. 1312305-12-6), human IgG1 backbone; heavy chain SEQ ID NO:9, light chain SEQ ID NO:10
[1]
  survival of tumor bearing UM-UC-1 xenograft mice: significantly extended survival
[2]
  cross-reactivity with other FGFRs: no cross-reactivity
[3]
  efficacy: efficacious
[4]
  Grade 3 or higher AE related to B-701: Colitis, # of subjects: 1 subjects
  Grade 3 or higher AE related to B-701: Colitis, % of subjects: (5%)
  Grade 3 or higher AE related to B-701: DIC, # of subjects: 1 subjects
  Grade 3 or higher AE related to B-701: DIC, % of subjects: (5%)
  Grade 3 or higher AE related to B-701: Decreased WBCs, # of subjects: 2 subjects
  Grade 3 or higher AE related to B-701: Decreased WBCs, % of subjects: (11%)
  Grade 3 or higher AE related to B-701: Decreased lymphocytes, # of subjects: 1 subjects
  Grade 3 or higher AE related to B-701: Decreased lymphocytes, % of subjects: (5%)
  Grade 3 or higher AE related to B-701: Decreased neutrophil count, # of subjects: 4 subjects
  Grade 3 or higher AE related to B-701: Decreased neutrophil count, % of subjects: (21%)
  Grade 3 or higher AE related to B-701: Diarrhea, # of subjects: 1 subjects
  Grade 3 or higher AE related to B-701: Diarrhea, % of subjects: (5%)
  Grade 3 or higher AE related to B-701: Fatigue, # of subjects: 1 subjects
  Grade 3 or higher AE related to B-701: Fatigue, % of subjects: (5%)
  Grade 3 or higher AE related to B-701: Hyponatremia, # of subjects: 1 subjects
  Grade 3 or higher AE related to B-701: Hyponatremia, % of subjects: (5%)
  Grade 3 or higher AE related to B-701: Thrombocytopenia, # of subjects: 1 subjects
  Grade 3 or higher AE related to B-701: Thrombocytopenia, % of subjects: (5%)
[4]; [5]
  Grade 3 or higher AE related to B-701: ALT elevation, # of subjects: 1 subjects
  Grade 3 or higher AE related to B-701: ALT elevation, % of subjects: (5%)
  Grade 3 or higher AE related to B-701: AST elevation, # of subjects: 1 subjects
  Grade 3 or higher AE related to B-701: AST elevation, % of subjects: (5%)
